This note sets out measurements from the supplement of paper PMC10567573.

A short description of the data set: protein stability index of a GFP-peptide fusion (GPS, HEK-293T) (PSI 1-6); higher = more stable. The following applies: c terminus: a fixed tail appended.

± gives the standard deviation.
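Further: 24-mer peptide tiles fused after GFP, lentivirally expressed, FACS-sorted into six equal bins by GFP/DsRed ratio, decoded by Illumina sequencing, PSI is the read-weighted mean bin number.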

Regarding TNYNNVCRKFPRDMKAMSPENQEY [RHOBTB2], the protein stability index is 3.8 ± 0.12 (treatment: DMSO) and 4.13 ± 0.12 (treatment: MLN4924 1 uM, 8 h).

On to KGLSGGFGSRSLYSLGGVRSLNVA [KRT71], for which the protein stability index (treatment: DMSO) amounted to 2.58 ± 0.26 and the protein stability index (treatment: MLN4924 1 uM, 8 h) is 2.41 ± 0.39.

For RRKREVLVEDMVSQEEAQGLPSSE [ZNF24], the protein stability index was 5.31 ± 0.2 (treatment: DMSO) and 5.43 ± 0.15 (treatment: MLN4924 1 uM, 8 h). The corresponding values for ADQRSRMLSIFYFAIPVGSGLGYI [SPNS1] are 2.44 ± 0.52 and 2.26 ± 0.31. On the same counts, the results for KVIERGERLDELQDKSESLSDNAT [VAMP4] are 5.38 ± 0.13 and 5.33 ± 0.18. The corresponding values for HEEVVEKVKKSGSRVMFLLVDKET [PDZK1] are 3.97 ± 0.17 and 4.25 ± 0.23. TVGIYFGLVYRIHSVLQGFIPLFQ [TMEM40]: the protein stability index runs as follows: (treatment: DMSO) 3.16 ± 0.58; (treatment: MLN4924 1 uM, 8 h) 3.16 ± 0.54. The corresponding values for SSNRIRHLRTHTGERPYKCSECGE [ZNF263] are 4.28 ± 0.089 and 4.44 ± 0.24.

For the sequence KKRYEEEINKRTAAENEFVLLKKD [KRT71], the protein stability index stood at 5.07 ± 0.2 (treatment: DMSO) and 4.99 ± 0.27 (treatment: MLN4924 1 uM, 8 h).

Take MEEMSGESVVSSAVPAAATRTTSF [KCTD10]: the protein stability index worked out at 4.76 ± 0.28 (treatment: DMSO) and 4.82 ± 0.49 (treatment: MLN4924 1 uM, 8 h). On the same counts, the results for NIMTQNVERILARGENLEHLRNKT [VAMP8] are 3.46 ± 0.29 and 3.93 ± 0.068. The corresponding values for LRNIQGLFAPLKLQMEFKAVQQVQ [POMP] are 2.25 ± 0.44 and 2.28 ± 0.11. The corresponding values for TPLDAFRMTSAAHYYPKLMSIMGN [GFOD1] are 2.12 ± 0.33 and 2.06 ± 0.093. Turning to GGSGGGGGGDEDGSLGSRAEPAPR [SMAD6], the protein stability index turned out to be 5.38 ± 0.21 (treatment: DMSO) and 5.41 ± 0.13 (treatment: MLN4924 1 uM, 8 h).

For the sequence QYLEEERHMREENLRLQRKLQREM [CCDC6], the protein stability index runs as follows: (treatment: DMSO) 4.24 ± 0.22; (treatment: MLN4924 1 uM, 8 h) 4.16 ± 0.42.

On to LLLDCGAEVNAVDNEGNSALHIIV [FEM1B], for which the protein stability index by setting is: (treatment: DMSO) 2.39 ± 0.45; (treatment: MLN4924 1 uM, 8 h) 2.24 ± 0.42.

In the case of CLLQPPSCPNGMSAENGLEKSGFS [DLC1], the protein stability index turned out to be 3.99 ± 0.14 (treatment: DMSO) and 3.44 ± 0.8 (treatment: MLN4924 1 uM, 8 h).

For the sequence YLILALLSVTISFRIYKSVIQAVQ [RTN3], the protein stability index (treatment: DMSO) is 3.42 ± 0.42 and the protein stability index (treatment: MLN4924 1 uM, 8 h) is 2.99 ± 0.48. Regarding FGHRFIILDTDEYVLKYMESNAAQ [EFHC1], the protein stability index is, setting by setting: (treatment: DMSO) 2.25 ± 0.45; (treatment: MLN4924 1 uM, 8 h) 2.05 ± 0.31. Regarding MEACMDGHVEVARLLLDSGAQVNM [ANKRD17], the protein stability index reads like this: (treatment: DMSO) 2.98 ± 0.32; (treatment: MLN4924 1 uM, 8 h) 3.06 ± 0.28. The corresponding values for FSTILHLLLGSPHPAATALHAELC [LPCAT4] are 3.14 ± 0.47 and 2.73 ± 0.53.

In turn, LDPAYTTLEFENVQVLTMGNDTSP [HNF4A] returned a protein stability index (treatment: DMSO) of 5.58 ± 0.15 and a protein stability index (treatment: MLN4924 1 uM, 8 h) of 5.46 ± 0.18. The corresponding values for SWASAQVQILCHTYWEHWTSQGQV [RTP4] are 2.8 ± 0.74 and 2.77 ± 0.75.

For YVIGGRNETGYLSSVECYNLETNE [KLHL14], the protein stability index reads like this: (treatment: DMSO) 2.66 ± 0.31; (treatment: MLN4924 1 uM, 8 h) 3.02 ± 0.59. On the same counts, the results for EAERKIIEENITSAAPSNDQDGEY [SRPK2] are 5.66 ± 0.17 and 5.69 ± 0.26. The corresponding values for KINVNEIFYDLVRQINRKTPVPGK [RAP1B] are 2.44 ± 0.4 and 2.25 ± 0.26.

For FLPHHIMVKIFRLLPTKSLVALKC [FBXO34], the protein stability index was found to be 2.76 ± 0.39 (treatment: DMSO) and 2.29 ± 0.74 (treatment: MLN4924 1 uM, 8 h). On the same counts, the results for EDEDDDSADMDESDEDDEEERRRR [FBXO3] are 5.65 ± 0.27 and 5.69 ± 0.12. On the same counts, the results for DDKMVRFWRIDEDYPVQVAPLSNG [WSB1] are 3.37 ± 0.34 and 3.45 ± 0.33. The corresponding values for TKLSAQSAQYSQQLQAARNEYLLN [FCHSD1] are 3.19 ± 0.055 and 3.33 ± 0.18. With ILWDTLLRLCAWGLASWPLARGIH [POMT2], the protein stability index turned out to be 2.823 ± 0.003 (treatment: DMSO) and 3.27 ± 1.2 (treatment: MLN4924 1 uM, 8 h). The corresponding values for KRFASLSRFVETLVVADDKMAAFH [ADAMTS4] are 2.25 ± 0.52 and 2.06 ± 0.58. The corresponding values for ARKARKYEIPHFRLKKVENIKIWL [PHTF1] are 2.09 ± 0.83 and 1.96 ± 0.46.

In the case of SGKRLSGVSSVDSAFSSRGSLSLS [RIPK4], the protein stability index was 3.47 ± 0.62 (treatment: DMSO) and 3.57 ± 0.41 (treatment: MLN4924 1 uM, 8 h). The corresponding values for GNQDYKYRVSDVTKAGHSLELIEP [VDR] are 4.24 ± 0.22 and 4.3 ± 0.26.

Take RRERELQHAALGGTATRQNNWPPL [SCAMP3]: the protein stability index was found to be 3.54 ± 0.16 (treatment: DMSO) and 3.82 ± 0.21 (treatment: MLN4924 1 uM, 8 h). Take TEDTPKVNADIEKVNQNQAKRCTV [NSDHL]: the protein stability index by setting is: (treatment: DMSO) 5.42 ± 0.23; (treatment: MLN4924 1 uM, 8 h) 5.38 ± 0.21. For the sequence GSKCSPEDLATAYNNRGQIKYFRV [TTC32], the protein stability index was 2.16 ± 0.21 (treatment: DMSO) and 2.13 ± 0.37 (treatment: MLN4924 1 uM, 8 h). On the same counts, the results for VGERLQDTHSWKSELQREMEALAA [TEKT4] are 3.9 ± 0.62 and 3.92 ± 0.56. The corresponding values for PSNARGPILSRSTSTGSAASSGSN [SPRY1] are 4.96 ± 0.17 and 5.01 ± 0.12. On the same counts, the results for NYCPQQTKITSAFKYINTVISCTI [EDNRA] are 3.3 ± 0.65 and 2.77 ± 0.18. With LLTGETEADPEMIKRAEDYGPVEV [CLPTM1], the protein stability index worked out at 5.02 ± 0.3 (treatment: DMSO) and 5.14 ± 0.11 (treatment: MLN4924 1 uM, 8 h). The corresponding values for MVEADRPGKLFIGGLNTETNEKAL [RBMX] are 4.75 ± 0.096 and 4.39 ± 0.48. On to RELNLPFGGMKSSGIGREGAKDSY [ALDH8A1], for which the protein stability index is, setting by setting: (treatment: DMSO) 4.08 ± 0.12; (treatment: MLN4924 1 uM, 8 h) 4.16 ± 0.37. On the same counts, the results for QLQFLIRYHRFISFALYLAGFCMF [CDS1] are 2.07 ± 0.062 and 2.32 ± 0.52. The corresponding values for DVQLLHSWNNNDRSLNVFVKEDDK [SPSB1] are 4.88 ± 0.14 and 4.97 ± 0.18. For the sequence LRGGRGGSGGTRGPPSRGGHMDDG [RBMX], the protein stability index reads like this: (treatment: DMSO) 5.26 ± 0.19; (treatment: MLN4924 1 uM, 8 h) 5.3 ± 0.34. On the same counts, the results for FAAEAGHIDIVKELIKWRAAIVVN [FEM1B] are 2.3 ± 0.28 and 2.02 ± 0.55. The corresponding values for KEGEGEVGGEAVEVEEVENVQTEF [TRIM55] are 5.716 ± 0.023 and 5.59 ± 0.37. In the case of GNNLHNASIPEHLAYGSVITVKNL [POMT2], the protein stability index by setting is: (treatment: DMSO) 3.05 ± 0.37; (treatment: MLN4924 1 uM, 8 h) 3.02 ± 0.28.

Sequence YNIKLKWTNQQKLYSRTGDIVEFV [CFHR2] came in with a protein stability index (treatment: MLN4924 1 uM, 8 h) of 2.46 ± 0.41. In the case of SGAGHGSGSGSGPGCGSVPGSGSG [SPAG8], the protein stability index (treatment: DMSO) stood at 5.03 ± 0.17 and the protein stability index (treatment: MLN4924 1 uM, 8 h) was found to be 4.96 ± 0.4.

On to RTANPSKTIDLGAAAHYTGDKASP [CLINT1], for which the protein stability index by setting is: (treatment: DMSO) 4.99 ± 0.27; (treatment: MLN4924 1 uM, 8 h) 4.93 ± 0.083. On the same counts, the results for MSPSLQEGAQLGENKPSTCSFSIE [HESX1] are 4.95 ± 0.3 and 5.07 ± 0.18. On the same counts, the results for MAVPPGHGPFSGFPGPQEHTQVLP [DYRK1B] are 3.75 ± 0.29 and 3.66 ± 0.065. The corresponding values for ADAISENYRIMSYFKEAELKDLLL [WEE1] are 2.61 ± 0.22 and 2.72 ± 0.54. Regarding QKPEFQDLSVEERSFVEKHRWPSN [RHOBTB3], the protein stability index was found to be 4.08 ± 0.34 (treatment: DMSO) and 4.04 ± 0.17 (treatment: MLN4924 1 uM, 8 h).

LLFVRGAGNCPECGTPLRKSNFRV [MNAT1] came in with a protein stability index (treatment: DMSO) of 2.2 ± 0.19 and a protein stability index (treatment: MLN4924 1 uM, 8 h) of 2.6 ± 0.32. On the same counts, the results for HGQEGSILVTKVEEPSKYGVVVCE [GMPPB] are 3.9 ± 0.13 and 3.94 ± 0.25. The corresponding values for NTELEVKIRDWYQRQAPGPARDYS [KRT17] are 3.4 ± 0.35 and 3.48 ± 0.41. On the same counts, the results for RNGMASEGLNSSLCSPGHERRGTP [PSD2] are 4.72 ± 0.34 and 4.61 ± 0.28. With FLRQKVLSLPLPDPLKYYLLYYRE [PCMTD2], the protein stability index (treatment: DMSO) came to 2.24 ± 0.34 and the protein stability index (treatment: MLN4924 1 uM, 8 h) amounted to 2.26 ± 0.31.

For TITMAHLLAAREDLSKIIRTSSGT [FAM98B], the protein stability index runs as follows: (treatment: DMSO) 2.31 ± 0.33; (treatment: MLN4924 1 uM, 8 h) 2.38 ± 0.4.

LSKSRENPEEDEDQRNPAKESLET [SOAT1]: the protein stability index was found to be 5.47 ± 0.27 (treatment: DMSO) and 5.66 ± 0.34 (treatment: MLN4924 1 uM, 8 h). On the same counts, the results for VGDILWEHLEILQKEDVKPYQVNG [ETS1] are 3.1 ± 0.27 and 3.05 ± 0.33. The corresponding values for LQLSEFLCEEFRNRNQRIVQLIQD [CPN1] are 2.56 ± 0.25 and 2.71 ± 0.39. The corresponding values for INLEEKEKQIRSFLIEGPLINTIR [PLEKHN1] are 2.5 ± 0.13 and 2.67 ± 0.31.

For FLTVGSVLQMWHIVDKCTELLREG [ZBTB22], the protein stability index amounted to 3.09 ± 0.55 (treatment: DMSO) and 3.4 ± 0.32 (treatment: MLN4924 1 uM, 8 h). On the same counts, the results for TLVMFQSLGERMNTFVRYLLKRIK [KCNK9] are 3 ± 0.54 and 2.73 ± 0.23.

As to RLKLLKDREVDAATSATSHTRSLN [FBF1], the protein stability index was determined as 4.31 ± 0.32 (treatment: DMSO) and 4.41 ± 0.16 (treatment: MLN4924 1 uM, 8 h). The corresponding values for NEEETPSCMASLWTAPLVMRTTNL [CDC25A] are 3.22 ± 0.18 and 3.3 ± 0.11. On the same counts, the results for PAPSRMQMPQGNPLLLSHTLQELL [SNX8] are 3.08 ± 0.21 and 3.1 ± 0.22. The corresponding values for RGRMPPTQPTHGQFALTNGDPLNC [NR2F2] are 4.06 ± 0.12 and 3.97 ± 0.26.
